Patent publication US20260234285A1 (University of Texas, published 2026)

How the values were obtained:
[1] = molecular target: T1, human PD-L1 (CD274) expressed on cells (human, UniProt Q9NZQ7 19-290); assay: flow cytometry on live transfected HEK293 cells, dose range 0-300 µg/mL
T1 construct: also called CD274 (PD-L1); PD-L1 CHO cells
Procedure: (§1) Human HEK293 cells were transfected with expression vectors encoding ZsGreen1 only, or ZsGreen1 and CD274 (PD-L1), PDCD1LG2 (PD-L2), INSR isoform long, INSR Isoform short or CD20 (assay control). […] Cells were washed, and incubated with the same AF647 anti-human IgG Fc detection antibody as used in the cell microarray screens. Cells were again washed, and analyzed by flow cytometry using an Accuri flow cytometer (BD). A 7AAD live/dead dye was used to exclude dead cells in the analysis, and ZsGreen+ (transfected) cells were selected for analysis.
(§2) Interactions were then investigated by flow cytometry.

[2] = molecular target: T2, INSR isoform long, over-expressed on HEK293 cells (human, UniProt P06213 28-1382); assay: as above
T2 construct: whole, on cells; Long isoform of the UniProt entry; also called INSR long isoform
Procedure: as §1, §2

[3] = molecular target: T3, human PD-L2 (PDCD1LG2) expressed on cells (human, UniProt Q9BQ51 20-273); assay: as above
T3 construct: also called PDCD1LG2 (PD-L2); PD-L2 CHO cells
T3 sequence: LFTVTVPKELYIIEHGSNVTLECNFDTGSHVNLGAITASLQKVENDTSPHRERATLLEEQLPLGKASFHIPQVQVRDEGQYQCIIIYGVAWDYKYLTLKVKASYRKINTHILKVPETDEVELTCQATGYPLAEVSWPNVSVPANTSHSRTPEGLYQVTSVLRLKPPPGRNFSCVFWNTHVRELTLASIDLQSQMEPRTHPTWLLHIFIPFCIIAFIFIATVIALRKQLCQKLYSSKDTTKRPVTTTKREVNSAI
Procedure: as §1, §2

[4] = molecular target: T4, human PD-L1 protein (monomeric, soluble analyte) (human, UniProt Q9NZQ7 19-238); assay: Biacore, IgG KD, monovalent format, human PD-L1-His
T4 construct: Recombinant human PD-L1 protein used as analyte on Octet or Biacore; also called monomeric PD-L1; monomeric human ligand
T4 sequence (Q9NZQ7 19-238 limits assumed): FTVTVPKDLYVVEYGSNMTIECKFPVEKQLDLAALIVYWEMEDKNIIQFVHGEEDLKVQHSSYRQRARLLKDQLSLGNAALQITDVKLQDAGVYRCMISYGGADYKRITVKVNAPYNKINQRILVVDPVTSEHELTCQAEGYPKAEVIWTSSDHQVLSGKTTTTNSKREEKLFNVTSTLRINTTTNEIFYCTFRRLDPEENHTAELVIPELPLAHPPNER

mPD-L2 dimer = molecular target: T5, mPD-L2 dimer (Mus musculus, UniProt Q9WUL5); assay: Octet, column mPD-L2 dimer; unit Molar from the legend
T5 construct: also called mouse PD-L2 protein
T5 sequence (PD-L2 chain, looked up): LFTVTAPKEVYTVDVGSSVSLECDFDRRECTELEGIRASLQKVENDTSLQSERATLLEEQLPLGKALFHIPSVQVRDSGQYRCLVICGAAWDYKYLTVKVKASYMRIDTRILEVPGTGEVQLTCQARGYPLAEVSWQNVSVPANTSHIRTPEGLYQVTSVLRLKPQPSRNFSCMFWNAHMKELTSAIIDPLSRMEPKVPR
Procedure: (§3) Antibody Characterization. Antibody candidates generated from yeast-surface display screening were tested for the capacity to bind to PD-L1 or PD-L2.

[5] = molecular target: T6, human PD-L2 protein (monomeric, soluble analyte) (human, UniProt Q9BQ51 20-220); assay: Biacore, IgG KD, monovalent format, human PD-L2-His
T6 construct: Recombinant human PD-L2 protein used as analyte on Octet or Biacore; a soluble form would lack the transmembrane part; also called monomeric PD-L2; monomeric human ligand
T6 sequence: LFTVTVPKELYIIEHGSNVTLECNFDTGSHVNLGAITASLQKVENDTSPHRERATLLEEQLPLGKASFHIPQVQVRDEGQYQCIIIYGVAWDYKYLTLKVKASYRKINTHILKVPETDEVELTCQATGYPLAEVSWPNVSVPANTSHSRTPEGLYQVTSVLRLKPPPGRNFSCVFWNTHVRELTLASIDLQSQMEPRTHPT

Human PD-L2-Fc [6] = molecular target: T7, Human PD-L2-Fc (Homo sapiens, UniProt Q9BQ51); assay: Octet, column hPD-L2 dimer; unit Molar from the legend
T7 construct: Antigen in Octet IgG KD Human PD-L2-Fc (M) Avid
T7 sequence (PD-L2-Fc fusion chain, looked up): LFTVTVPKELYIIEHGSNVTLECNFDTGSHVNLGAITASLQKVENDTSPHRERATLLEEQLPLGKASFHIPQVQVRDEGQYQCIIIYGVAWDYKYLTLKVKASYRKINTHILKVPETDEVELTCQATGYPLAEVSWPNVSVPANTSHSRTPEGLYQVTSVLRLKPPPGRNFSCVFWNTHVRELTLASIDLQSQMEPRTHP

[7] = molecular target: T3, human PD-L2 (PDCD1LG2) expressed on …; assay: cell-based or functional assay
Human PD-L2-Fc [8] = molecular target: T7, Human PD-L2-Fc; assay: Octet, IgG KD, avid format, human PD-L2-Fc
Human INSR BioVendor = molecular target: T8, Human INSR BioVendor (Homo sapiens, UniProt P06213-2); assay: Octet, IgG KD, monovalent format, human INSR BioVendor
T8 construct: recombinant soluble protein used in Octet, monovalent format; Antigen of the column Octet IgG KD Human INSR BioVendor (M) Monovalent

Human PD-L1-Fc [9] = molecular target: T9, Human PD-L1-Fc (Homo sapiens, UniProt Q9NZQ7); assay: Octet, IgG KD, avid format, human PD-L1-Fc
T9 construct: Antigen in Octet IgG KD Human PD-L1-Fc (M) Avid
T9 sequence (Q9NZQ7 19-239 limits assumed): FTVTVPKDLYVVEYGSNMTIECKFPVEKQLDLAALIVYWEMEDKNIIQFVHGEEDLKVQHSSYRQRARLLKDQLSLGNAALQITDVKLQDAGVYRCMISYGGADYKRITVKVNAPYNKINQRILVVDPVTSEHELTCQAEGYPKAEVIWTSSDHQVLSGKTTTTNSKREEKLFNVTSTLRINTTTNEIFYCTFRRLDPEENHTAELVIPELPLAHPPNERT

Human PD-L1-Fc [10] = molecular target: T9, Human PD-L1-Fc; assay: Octet, column hPD-L1 dimer; unit Molar from the legend
[11] = molecular target: T6, human PD-L2 protein (monomeric, soluble …); assay: Octet, monomeric human ligand
[12] = molecular target: T4, human PD-L1 protein (monomeric, soluble …); assay: Octet, monomeric human ligand
[13] = molecular target: T1, human PD-L1 (CD274) expressed on cells; assay: cell-based or functional assay
mPD-L1 dimer = molecular target: T10, mPD-L1 dimer (Mus musculus, UniProt Q9EP73); assay: Octet, column mPD-L1 dimer; unit Molar from the legend
T10 construct: also called mouse PD-L1 protein
T10 sequence (Q9EP73 19-238 limits assumed): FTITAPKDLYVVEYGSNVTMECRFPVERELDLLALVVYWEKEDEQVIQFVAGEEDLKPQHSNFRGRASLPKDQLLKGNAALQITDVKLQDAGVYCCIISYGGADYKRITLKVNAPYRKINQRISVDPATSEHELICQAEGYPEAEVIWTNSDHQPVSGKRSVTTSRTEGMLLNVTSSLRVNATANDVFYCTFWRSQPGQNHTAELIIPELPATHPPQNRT
Procedure: as §3

[14] = molecular target: T6, human PD-L2 protein (monomeric, soluble …); assay: Octet, IgG KD, monovalent format, human PD-L2-His
[15] = molecular target: T4, human PD-L1 protein (monomeric, soluble …); assay: Octet, IgG KD, monovalent format, human PD-L1-His

T1 sequence (Q9NZQ7 19-290 limits assumed): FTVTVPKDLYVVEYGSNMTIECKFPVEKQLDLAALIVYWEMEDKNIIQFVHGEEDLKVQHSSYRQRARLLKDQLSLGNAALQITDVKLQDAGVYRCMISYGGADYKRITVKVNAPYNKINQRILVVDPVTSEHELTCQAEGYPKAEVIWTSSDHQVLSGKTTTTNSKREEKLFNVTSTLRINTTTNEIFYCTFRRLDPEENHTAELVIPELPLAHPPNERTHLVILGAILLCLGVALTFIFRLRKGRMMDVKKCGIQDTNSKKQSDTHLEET

Binder | EC50 [1] [µg/mL] | EC50 [2] [µg/mL] | EC50 [3] [µg/mL] | Kd [4] [nM] | Kd (mPD-L2 dimer) [nM] | Kd [5] [nM] | Kd (Human PD-L2-Fc [6]) [nM] | EC50 (read off the curve) [7] [nM] | Kd (Human PD-L2-Fc [8]) [nM] | binding result (Human INSR BioVendor) | Kd (Human PD-L1-Fc [9]) [nM] | Kd (Human PD-L1-Fc [10]) [nM] | Kd [11] [nM] | Kd [12] [nM] | EC50 (read off the curve) [13] [nM] | Kd (mPD-L1 dimer) [nM] | Kd [14] [nM] | Kd [15] [nM]
ADI-38002 (antibody, human IgG1, kappa, V domains shown, Human IgG1 (GASDIE); Some in vivo work used a mouse IgG2a form; also called Ab-38002; test antibody 38002) VH: QVQLQQWGAGLLKPSETLSLTCAVYGGSLSGYPWSWIRQPPGKGLEWIGETDVSGWTDYNPSLKSRVTISVDTSKNQFSLKLSSVTAADTAVYYCARDGRRMGTPSFDIWGQGTMVTVSS VL: DIQMTQSPSSVSASVGDRVTITCRASQDINSFLAWYQQKPGKAPKLLIYAASSLNSGVPSRFSGSGSGTDFTLTISSLQPEDFATYYCQKSVYFPPTFGGGTKVEIKR | 0.03 | 145 | 0.1 | 3.76 | 0.7 | 0.727 | 0.601 | ~0.5 | 0.601 | no binding | 1.28 | 1.28 | 1.9 | 7.62 | ~1 | 3.2 |  | 
ADI-38004 (antibody, V domains shown) VH: QVQLQQWGAGLLKPSETLSLTCAVYGGSLSGYPWSWIRQPPGKGLEWIGETDVSGWTDYNPSLKSRVTISVDTSKNQFSLKLSSVTAADTAVYYCARDGRRMGTPSFDIWGQGTMVTVSS VL: DIQMTQSPSSVSASVGDRVTITCRASQGISSFLAWYQQKPGKAPKLLIYAASSLNSGVPSRFSGSGSGTDFTLTISSLQPEDFATYYCQSAVYFPPTFGGGTKVEIKR |  |  |  | 37.7 |  | 1.24 |  |  | 0.597 |  | 1.22 |  |  |  |  |  | 2.84 | 20
ADI-38003 (antibody, V domains shown) VH: QVQLQQWGAGLLKPSETLSLTCAVYGGSLSGYPWSWIRQPPGKGLEWIGETDVSGWTDYNPSLKSRVTISVDTSKNQFSLKLSSVTAADTAVYYCARDGRRMGTPSFDIWGQGTMVTVSS VL: DIQMTQSPSSVSASVGDRVTITCRASKGISSFLAWYQQKPGKAPKLLIYAASSLNSGVPSRFSGSGSGTDFTLTISSLQPEDFATYYCQKAVYFPPTFGGGTKVEIKR |  |  |  | 8.09 |  | 0.175 |  |  | 0.377 |  | 1.27 |  |  |  |  |  | 1.02 | 14.2
ADI-37464 (antibody, V domains shown) VH: QVQLQQWGAGLLKPSETLSLTCAVYGGSLSGYPWSWIRQPPGKGLEWIGETDVSGWTDYNPSLKSRVTISVDTSKNQFSLKLSSVTAADTAVYYCARDGRRMGTPSFDIWGQGTMVTVSS VL: DIQMTQSPSSVSASVGDRVTITCRASQGINSFLAWYQQKPGKAPKLLIYAASSLNSGVPSRFSGSGSGTDFTLTISSLQPEDFATYYCQKAVYFPPTFGGGTKVEIKR |  |  |  | 2.76 |  | 0.508 |  |  | 0.426 |  | 1.52 |  |  |  |  |  | 1.6 | 6.23
